From patent publication US20260078416A1, “ORTHOGONAL METABOLIC FRAMEWORK FOR ONE-CARBON UTILIZATION” (Mojia Biotech Pte. Ltd., priority 2021, published 2026)

B1: JGI15: HACS variant; GenBank HAK63664.1 (protein)
chain: MAKSEGKVNGATLMARALQQQGVQYMFGIVGFPVIPIAIAAQREGITYIGMRNEQSASYAAQAASYLTGRPQACLVVSGPGVVHALAGLANAQVNCWPMLLIGGASAIEQNGMGAFQEERQVLLASPLCKYAHQVERPERIPYYVEQAVRSALFGRPGAAYLDMPDDVILGEVEEAAVRPAATVGEPPRSLAPQENIEAALDALQSAKRPLVIVGKGMAWSRAENEVRQFIERTRLPFLATPMGKGVMPDDHPLSVGGARSHALQEADLVFLLGARFNWILHFGLPPRYSKDVRVIQLDLSAEEIGNNRQAEVALVGDGKAIVGQLNQALSSRQWFYPAETPWREAIAAKIAGNQAAVAPMIADNTSPMNYYRVYRDIAARLPRNAIIVGEGANTMDIGRTQMPNFEPRSRLDAGSYGTMGIGLGFAVAAAAVHPGRPVIAVQGDSAFGFSGMEFETAARYGMPIKVIILNNGGIGMGSPAPRDGQPGMPHALSHDARYERIAEAFGGAGFYVTDSAELGPALDAAMAFKGPAIVNIKIAATADRKPQQFNWHG
B2: JGI20: HACS variant; GenBank PWB41796.1 (protein)
chain: MGQITGAQIVARALKQQGVEYMFGIVGIPVIPIAMFAQREGIKFYGFRNEQSASYAAAAVGYLTGRPGVCLGVSGPGMIHGVAGMANAWSNCWPMILIGGANDSYQNGQGAFQEAPQIEAARPFAKYCARPDSLARLPFYVEQAVRTSIYGRPGAVYLDLPGDIITGAMEEEDVHFPPRCPDAPRMMAPQESIDAAMAALKSAERPLVIVGKGAAYSRAENEVREFLETTQLPYLASPMGKGVMPDDHPLSIAPARSAALLGADVILLMGARLNWMMHFGHPPRFDPKVRVIQMDISAEEIGTNVPTEVALVGDAKAITTQLNASLKQQPWQYPSETTWWTGLRKKIDENGATVAEMMADESVPMSYYRVYREIRDLIPNDAIIQNEGASTMDIGRTLMPNFLPRHRLDAGSFGTMGVGLGQAIAAAAVHPDKHVFCIEGDSAFGFSGMEVETAARYGMKNITFIIINNNGIGGGPDTLDPTRVPPSAYTPNAHYEKMAEIYGGKGYFVTEPSQLRPALEEAIKADKPAIVNIMISATSQRKPQQFAWLTR

Assays:
[1] = In vitro kinetic assay of purified HACS variants, coupled with CaAbfT formyl-CoA generation; substrate formaldehyde; format: biochemical; settings: for Km: read-out: Km, app
Protocol: (§1) The kinetic assay was performed with a coupled reaction providing formyl-CoA from formate catalyzed by CoA transferase CaAbfT using acetyl-CoA as a CoA donor.
(§2) In vitro kinetic assay was comprised of 100 mM KPi pH 6.9, 10 mM MgCl2, 0.15 mM TPP, 2 mM acetyl-CoA, 1 μM CaAbfT, 0.25 μM HACS variants, and 20 mM sodium formate. Reactions were incubated at room temperature for 3 min to convert formate to formyl-CoA, and then specific concentration of aldehyde (specifically acetaldehyde or propionaldehyde here) was added to the reaction. After incubating another 3 min, 1/20 of the reaction volume of 10 M NaOH solution was added to terminate the reactions. After 30 min hydrolysis, 1/20 of the reaction volume of 10 N H2SO4 was added to neutralize the pH. Samples were centrifuged at 20817×g for 15 minutes and the supernatant analyzed by GC-MS as described below.
(§3) For this analysis, 0.15 of the reaction volume of internal standard methyl succinate was added to the samples. The resulting sample was extracted into 4 mL ethyl acetate by vigorous vortexing for 20 min. The organic phase was separated and evaporated to dryness under a stream of nitrogen. The residue was dissolved in 30 μL pyridine and 30 μL N,O-Bis(trimethylsilyl)trifluoroacetamide (BSTFA) and incubated at 60° C. for 15 minutes. Compound identification and analysis was performed by GC-MS using an Agilent 7890B Series Custom Gas Chromatography system equipped with a 5977B Inert Plus Mass Selective Detector Turbo EI Bundle (for identification) and an Agilent HP-5-ms capillary column (0.25 mm internal diameter, 0.25 μm film thickness, 30 m length). Samples were analyzed by GC (1 μL injection with a 20:1 split ratio) using helium as the carrier gas at a flowrate of 1.5 mL/min and the following temperature profile: initial 90° C. for 3 min; ramp at 15° C./min to 170° C.; ramp at 20° C./min to 300° C. and hold for 8 min. The injector and detector temperature were 250° C. and 350° C., respectively.
(§4) As hypothesized from Example 3 (FIG. 22B), JGI15 had lower Km with lower kcat with respect to formaldehyde in comparison with JGI20 (Table 8). With longer chain aldehydes JGI15 and JGI20 has lower Km (sub millimolar) to acetaldehyde and propionaldehyde compared to JGI23 and JGI24, while also lower Kcat as well. Which indicates they have stronger affinity to the aldehyde and lower enzymatic activity. JGI23 and JGI24 are promising as they have better activity (higher Kcat) which have a good potential to work better in vivo by improve their affinity to substrates (lower Km). Similarly, AcHACL as lower Km with acetone while JGI15 as better Kcat (Table 8).

[2] = In vitro kinetic assay of purified HACS variants; substrate propionaldehyde; format: biochemical; settings: for Km: read-out: Km, app
Protocol: as §1, §2, §3, §4

[3] = test system: glycolate production from formaldehyde and formate; test: Resting-cell bioconversion pathway 2 (HACS with CaAbfT), co-feeding formaldehyde and formate; format: cell-based, E. coli
From the text: We used glycolic acid (glycolate) productivity per cell density (uM glycolate/OD600) as indicator of HACS activity. Two different enzymatic routes for glycolate synthesis are explored. The first pathway (pathway 1) is similar to the pathway used for initial screening in Example 2 with addition of an extra gene, aldehyde dehydrogenase aldA from Escherichia coli (EcAldA) overexpressed to drive flux from glycolaldehyde to glycolate (FIG. 21A). In addition, HACS and LmACR-AldA are controlled under independent inducible promoters to investigate the impact of varying relative gene expressions (FIG. 21B). The second pathway (pathway 2) involves independent fluxes of formaldehyde and formyl-CoA allowing assessment of the enzyme activity with response to changing formaldehyde concentration only, while maintaining constant formyl-CoA flux. Formyl-CoA is generated by formic acid (formate) catalyzed by the acyl-CoA transferase from Clostridium aminobutyricum (CaAbfT) (FIG. 22A).
For the in vivo prototyping, we engineered vectors to independently control expression of HACS variants and the LmACR-EcAldA (pathway 1, FIG. 21A) or CaAbfT (pathway 2, FIG. 22A), with HACS under control of the IPTG-inducible T7 promoter in pCDFDuet-1 and LmACR-EcAldA or CaAbfT under control of a cumate-inducible T5 promoter in pETDuet-1 (FIG. 21B). As a host for these vectors, we used an engineered strain of E. coli based on MG1655(DE3) with knockouts for formaldehyde (ΔfrmA) and formate (ΔfdhF ΔfdnG ΔfdoG) oxidation as well as for glycolate utilization (ΔglcD)), which we expected could compete or interfere with the analysis of our pathway. […]
Cells from the above pre-cultures were then centrifuged (4000 rpm, 22° C.), washed with the above minimal media without any carbon source, and resuspended with 1 mL of above minimal media containing indicated amounts of carbon source. […] The cells were harvested after 3 hours for LmACR-EcAldA co-expression and 1 hour for CaAbfT co-expression by centrifugation and the supernatant analyzed by HPLC or GC-MS as described in EXAMPLE 2. […]

[4] = 0.5 mM formaldehyde and 20 mM formate co-fed

Row | Molecule | Kcat, app [1] [s⁻¹] | Km [1] [µM] | Kcat, app [2] [s⁻¹] | Km [2] [µM] | glycolate productivity relative to JGI20 [3, 4] [fold] | glycolate productivity relative to RuHACL [3, 4] [fold] | glycolate productivity under high formaldehyde concentration ([3]; 5 mM formaldehyde and 20 mM formate co-fed)
1 | B1 | 5.98 | 3870 | 11.08 ± 0.02 | 200 ± 40 | 1.5 | 7 | –
2 | B2 | 9.53 | 21400 | 17.35 ± 1.97 | 420 ± 60 | – | – | better glycolate productivity
